B1: TPR t1 (parent)
chain: GACCAAUCUGCCCUCAGAGCUCGAGAACAUCUUCGGAUGCAGAGGAGGCAGGCUUCGGUGGCGCGAUAGCGCCAACGUCCUCAACCUCCAAUGCAUCCCACCACAUGAUGAUGCCUGAAGAGCCUUGGUUUUUUG

Variants of: B1
Test: polymerase ribozyme fitness, log enrichment relative to wild type (log ratio); higher = more active; in vitro selection for triplet polymerase activity
How it was run: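 Mutant libraries for each subunit of a heterodimeric triplet polymerase ribozyme were made by PCR and then transcribed. Each library underwent one round of in vitro selection in triplicate: annealing with a biotinylated primer, the partner subunit and triplets, frozen incubation at −7 °C, gel excision of extended constructs, streptavidin-bead capture and RT-PCR. Input and output libraries were Illumina-sequenced, and only genotypes with ≥10 input reads and ≥1 read per output were kept. Fitness is the logarithm, base 2, of genotype enrichment over wild-type enrichment, computed from inverse-variance-weighted replicate averages.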

Variant | polymerase ribozyme fitness (log ratio)
GACCAAUCUGCCCUCAGAGCUCGAGAACAUCUUCGGAUGCAGAGGAGGAAGGCUUCGGUGGCGCGAUAGCGCCAACGUCCUCAACCUCCAAUGCAUCCCACCACAUGAUGAUGCCUGAAGAGCAUUGGUUUUUUG | 1.63
GACCAAUCUGCCCUCAGAGCUCGAGAACAUCUUCGGAUGCAGAGGAGGCAGGCUUCGGUGGCGCGAUAGCGCCAACGUCCUCAACCUCCAAUGCAUUCCACCACAGGAUGAUGCCUGAAGAGCCUUGGUUUUUUG | -2.7
GACCAAUCUGGCCUCAGAGCUCGGGAACAUCUUCGGAUGUAGAGGAGGCAGGCUUCGGUGGCGCGAUAGCGCCAACGUCCUCAACCUCCGAUGCAUCCCACCACAUGAUGAUGCCUGAAGAGCCUUGGUUAUUUG | -2.57
GACCAAUCUGCGCUCAGAGCUCGAGCACAUCUUCGGAUGCAGAGGAGGCAGGCUUCGGUUGCGCGAUAGCGCCAACGUCCUCAACCUCCAAUGCAUCCCACCACAUGAUGAUGCCUGAAGAGCCUUGGUUUUUUG | -3.25
GACCAAUCUGCCCUCAGAGCUCGAGAACAUCUUCGGAUGCAGAGGAGGCAGGCUUCGGUGGCGCGAUAGCGUCAACGUCCUCAACCUCCAAUGCAUCCCACCAAAUGAUGAUGCCUGAAAAUCCUUGGUUAUUUG | -1.54
GACCAAUCUGCCCUCAGAGCCCGAGAGCAUCUUCGGAUGCAGAGGAGGCAGGCUUCGGUGGCGCGAUAGCGCCAACGUCCUCAACCUCCAAUGCAUCCCACCACAUGAUGAUGCCUGAAGAGGCUUGGUUUUUUG | -0.817
GACCAAUCUGCCCUCAGAGCUCGAGUACAUCUUCGGAUGCAGAGGAGGCAGGCUUCGGAGGCACGAUAGCGCCAACGUCCUCAACCUCCAAUGCAUCCCACCACAUGAUGAUGCCUGAAGAGCCUUGGUUUUUUG | -5.57
GACCAAUCUGCCCUCAGAGAUCGAGAACAUCUUCGGAUGCAGAGGAGGCAGGCUUAGGUGGCGCGAUAGCGGCAACGUCCUCAACCUCCGAUGCAUCCCACCACAUGAUGAUGCCUGAAGAGCCUUGGUUUUUUG | -4.82
GACCAAUCUGCCCUCAGAGCUCGAAAACAUCUUCGGAUGCAGAGUAGGCAGGCUUCGGUGGCGCGAUAGCGCCAACGUCCUCAACCUGCGAUGCAUCCGACCACAUGAUGAUGCAUGAAGAGCCUUGGUUUUUUG | -7.43
GACCAAUCUGCCCUCAGAGCUCGAGAACAUCUUCGGAUGCAGAGGAUGCAGGAUUCGGUGGCGCGAUAGUGCCAACGUCCUCAACCUCCAAUGCAUCCCACCACAUGAUGAUGCCUGAAGAGCCUCGGUUUUUUG | -2.43
GACCAAUCUGCCCUCAGAGCUCGAGAACAUCUUCGGAUGCAGAGGAGGCAGACUUCGGUGGCGCGAUAGCGCCAACGUCCUCAACCUCCAAUGCAUCCCACCACAUGAUGAUACCUGAAGAGCCUUGGUUUUUUG | -1.37
GACCACUCUGCCCUCAGAGCUCGAGAACAUCUUCGGAUGCAGAGGAGACAGGCUUCGGUGGCGCGAUAGCUCCAACGUCCUAAACCUCCAAUGCAUCCCACCACAUGAUGAUGCCUGAAGAGCCUUGGUUUUUUG | -1
GACCAAUCUGCCCUCAGAGCUCGAGAACAUCUUCGGAUGCAGAGGAGUCAGGCUUCGGUGGCGCGAUAGCGCCAACGUCCUCAACCUACAAUGCAUCCCACCACAUGAUGAUGCCUGAAGAGCCUUGGUUUUUUG | -0.373
GACCAAUCUGCCCCCAGAGCUCGAGAACAUCUUCGGAUGCAGAGGAGGCAGGGUUCGGUGGCGCGAUAGCGCCCACGUCCUCGACCUCCAAUGUAUCCCACCACAUGAUGAUGCCUGAAGAGCCUUGGUUUUUUG | -2.55
GACCAAUCUCCCGUCAGAGCUCGAGAACAUCUUCGGAUGCAGAGGAGGCAGGCUUCGGUGACGCGAUAGCGCCAACGUCCUCAACCUCCAAUGCAUCCCACCACAGGAUGAUGCCUGUAGAGCCUUGGUUUUUUG | -2.68
GACCAAUCUGCACUCAGAUCUCGAGAACAUCUUCGGAUGCAGAGGAGGCAGGCUUCGGUGGCGCGAUAGCGCAAACCUCCUCAACCUCCAAUGCAUCCCACCACAUGAUGAUGCCUGAAGAGCCUUGGUUUUUUG | -5.03
GACCAAUCUGCCCACAGAGCUCGAGAACAUCUUCGGAUGCAGAGGAGGCAGGCUUCGGUGGCCCGAUAGCGCCAACGUCCUCAACCUCCAAUGCAUCCCACCACAUGAUGAUACCUGAAGAGCCUUGGUUUUUUG | -4.74
GACCAAUCUGCCCUCAGAGCUCGAGAACAUCUUCGGAUGCAGAGGAGGCAGGCUUGGGUGGCGCGAUAGCGCCAACGUCCUCAACCUCCAAUGCAUCCCACCACAUGAUGAUGCCUGAAGAGACUUGGUUUUUUG | 0.0294
GACCAAUCUGACCUCAGAGCUCGAGAACAUCUUCGUAUGCAGAGGAGGCAGGCUUCGGUGGCGCGAUAGCGCCAACCUCCUCAACCUCCAAUGCAUCCCACCACAUGAUGAUGCCUGAAGAGCCUUGGUUUUUUG | -3.38
GACCAAUCUGCCCUCAGAGCUCGAGAACAUCUUCGGAUGCAGAGGAGGCAGGCUUCUGUGGCCCGAUAGCGCCAACGUCCUCAACCUCCAAUGCAUCCCACCACAUGAUGAUGCCUGAAGAGCCUUGGUUUUUUG | -1.73
GACCAAUCUGCACUCAGAGCUCGAGAACAUCUUCGGAUGCAGAGGAGGCAGGCUUCGGUGGCGUGAUAGCGUCAACGUCCUCAACCUCCAAUGCAUCCCACCACAUGAUGAUGCCUGAAGAGCCUUGGUUUUUUG | -1.01

Source: the RNAGym collection of RNA variant scans (doi:10.1073/pnas.2313332121)
